Data published in patent US20110136740A1 (Stanford University, published 2011).
Positions count from the first letter of the chain named. Ends that are not written are not given here.

B1: engineered AgRP peptide 2bA (soluble, N-terminal FLAG tag and C-terminal hexahistidine tag) (peptide)
chain: DYKDDDDKGCVRLHESCLGQQVPCCDPAATCYCLKRGDWKGKCYCRHHHHHH
modifications: ends and bridges not checked; cysteine pairing not given here
notes: also called clone 2bA; αIIbβ3-specific peptide 2bA
B2: engineered AgRP peptide b3A (soluble, N-terminal FLAG tag and C-terminal hexahistidine tag) (peptide)
chain: B1 chain with L34V, K35G, W39V, K40R, G41R
modifications: ends and bridges not checked; cysteine pairing not given here
notes: also called clone b3A; β3-specific peptide b3A
B3: engineered AgRP peptide 2bJ (soluble, N-terminal FLAG tag and C-terminal hexahistidine tag) (peptide)
chain: B1 chain with L34N, K40R, G41S
modifications: ends and bridges not checked; cysteine pairing not given here
notes: also called clone 2bJ; αIIbβ3-specific peptide 2bJ
B4: engineered AgRP peptide 2bO (soluble, N-terminal FLAG tag and C-terminal hexahistidine tag) (peptide)
chain: B1 chain with L34K, G41E, K42R
modifications: ends and bridges not checked; cysteine pairing not given here
notes: also called clone 2bO; αIIbβ3-specific peptide 2bO
B5: engineered AgRP peptide b3I (soluble, N-terminal FLAG tag and C-terminal hexahistidine tag) (peptide)
chain: B1 chain with L34R, K35G, W39V, G41L, K42R
modifications: ends and bridges not checked; cysteine pairing not given here
notes: also called clone b3I; β3-specific peptide b3I

molecular target: αIIbβ3 integrin on human platelets (human) (UniProt P08514); assay: cell-based or functional assay

Molecule	aggregation (IC50; nM), human platelets	inhibition of ADP-induced platelet aggregation, IC50
eptifibatide (peptide)	94 nM	80 nM

molecular target: αIIbβ3 integrin on human platelets (human, UniProt P08514 32-1039; P05106 27-788); assay: cell-based or functional assay

Molecule	aggregation (IC50; nM), human platelets
B1	72 nM
B2	50 nM
B3	91 nM
B4	110 nM
B5	66 nM

molecular target: T1, αvβ5 integrin expressed on K562-αvβ5 cells (UniProt P06756 31-1048; P18084 24-799); assay: flow cytometry, direct binding to K562-αvβ5 cells
T1 construct: whole, on cells
T1 sequence (P06756 31-1048, chain 1 of 2): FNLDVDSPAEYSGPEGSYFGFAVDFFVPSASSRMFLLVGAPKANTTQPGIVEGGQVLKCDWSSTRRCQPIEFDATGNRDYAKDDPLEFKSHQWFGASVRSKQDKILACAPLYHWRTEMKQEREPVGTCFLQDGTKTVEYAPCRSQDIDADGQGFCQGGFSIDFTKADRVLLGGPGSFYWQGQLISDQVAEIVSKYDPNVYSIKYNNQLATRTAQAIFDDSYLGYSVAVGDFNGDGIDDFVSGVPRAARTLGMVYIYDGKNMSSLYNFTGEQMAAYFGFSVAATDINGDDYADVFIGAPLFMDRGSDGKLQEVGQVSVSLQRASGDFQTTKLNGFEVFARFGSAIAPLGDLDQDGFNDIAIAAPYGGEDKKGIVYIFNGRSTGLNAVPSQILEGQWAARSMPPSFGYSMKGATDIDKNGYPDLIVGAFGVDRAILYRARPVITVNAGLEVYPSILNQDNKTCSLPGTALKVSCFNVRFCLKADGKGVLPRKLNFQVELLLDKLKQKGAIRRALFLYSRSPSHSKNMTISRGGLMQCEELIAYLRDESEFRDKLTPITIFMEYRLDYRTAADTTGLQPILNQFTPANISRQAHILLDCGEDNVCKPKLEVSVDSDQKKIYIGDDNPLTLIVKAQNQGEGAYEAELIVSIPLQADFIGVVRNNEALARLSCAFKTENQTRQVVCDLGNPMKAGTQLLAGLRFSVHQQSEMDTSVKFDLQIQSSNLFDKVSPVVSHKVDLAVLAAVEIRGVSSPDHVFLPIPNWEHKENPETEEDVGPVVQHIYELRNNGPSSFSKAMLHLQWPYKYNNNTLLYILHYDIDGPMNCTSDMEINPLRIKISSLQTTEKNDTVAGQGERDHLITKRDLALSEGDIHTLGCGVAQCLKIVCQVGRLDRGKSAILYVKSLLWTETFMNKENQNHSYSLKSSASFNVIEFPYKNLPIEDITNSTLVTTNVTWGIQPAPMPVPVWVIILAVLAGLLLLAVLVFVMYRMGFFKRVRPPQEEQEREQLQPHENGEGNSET
T1 sequence (P18084 24-799, chain 2 of 2): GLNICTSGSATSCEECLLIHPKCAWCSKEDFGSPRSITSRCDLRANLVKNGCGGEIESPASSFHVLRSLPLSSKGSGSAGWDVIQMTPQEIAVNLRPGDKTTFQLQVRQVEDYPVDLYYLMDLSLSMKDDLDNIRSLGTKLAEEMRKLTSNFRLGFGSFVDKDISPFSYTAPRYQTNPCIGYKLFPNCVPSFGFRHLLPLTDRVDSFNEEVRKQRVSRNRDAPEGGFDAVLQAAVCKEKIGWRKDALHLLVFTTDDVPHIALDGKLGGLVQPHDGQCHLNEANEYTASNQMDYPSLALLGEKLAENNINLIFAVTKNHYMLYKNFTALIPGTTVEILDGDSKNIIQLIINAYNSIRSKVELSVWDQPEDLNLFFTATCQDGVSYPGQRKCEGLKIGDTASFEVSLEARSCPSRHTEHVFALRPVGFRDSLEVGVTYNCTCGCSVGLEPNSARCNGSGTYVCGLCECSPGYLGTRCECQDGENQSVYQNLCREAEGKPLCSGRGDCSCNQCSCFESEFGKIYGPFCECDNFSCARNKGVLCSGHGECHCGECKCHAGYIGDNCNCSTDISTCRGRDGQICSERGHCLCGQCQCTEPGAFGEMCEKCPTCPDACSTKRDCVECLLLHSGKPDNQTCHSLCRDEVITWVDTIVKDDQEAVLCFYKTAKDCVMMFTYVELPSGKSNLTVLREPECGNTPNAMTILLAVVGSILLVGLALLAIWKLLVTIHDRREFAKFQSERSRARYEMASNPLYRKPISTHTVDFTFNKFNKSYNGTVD

Molecule	binding result
B1	no binding (tested: 1 µM)
B2	no binding (tested: 1 µM)
B3	no binding (tested: 1 µM)
B4	no binding (tested: 1 µM)
B5	no binding (tested: 1 µM)

molecular target: T2, αvβ3 integrin expressed on K562-αvβ3 cells (UniProt P06756 31-1048; P05106 27-788); assay: flow cytometry, peptide titrated on K562-αvβ3 cells
T2 construct: whole, on cells
T2 sequence (P06756 31-1048, chain 1 of 2): as the sequence (P06756 31-1048, chain 1 of 2) above
T2 sequence (P05106 27-788, chain 2 of 2): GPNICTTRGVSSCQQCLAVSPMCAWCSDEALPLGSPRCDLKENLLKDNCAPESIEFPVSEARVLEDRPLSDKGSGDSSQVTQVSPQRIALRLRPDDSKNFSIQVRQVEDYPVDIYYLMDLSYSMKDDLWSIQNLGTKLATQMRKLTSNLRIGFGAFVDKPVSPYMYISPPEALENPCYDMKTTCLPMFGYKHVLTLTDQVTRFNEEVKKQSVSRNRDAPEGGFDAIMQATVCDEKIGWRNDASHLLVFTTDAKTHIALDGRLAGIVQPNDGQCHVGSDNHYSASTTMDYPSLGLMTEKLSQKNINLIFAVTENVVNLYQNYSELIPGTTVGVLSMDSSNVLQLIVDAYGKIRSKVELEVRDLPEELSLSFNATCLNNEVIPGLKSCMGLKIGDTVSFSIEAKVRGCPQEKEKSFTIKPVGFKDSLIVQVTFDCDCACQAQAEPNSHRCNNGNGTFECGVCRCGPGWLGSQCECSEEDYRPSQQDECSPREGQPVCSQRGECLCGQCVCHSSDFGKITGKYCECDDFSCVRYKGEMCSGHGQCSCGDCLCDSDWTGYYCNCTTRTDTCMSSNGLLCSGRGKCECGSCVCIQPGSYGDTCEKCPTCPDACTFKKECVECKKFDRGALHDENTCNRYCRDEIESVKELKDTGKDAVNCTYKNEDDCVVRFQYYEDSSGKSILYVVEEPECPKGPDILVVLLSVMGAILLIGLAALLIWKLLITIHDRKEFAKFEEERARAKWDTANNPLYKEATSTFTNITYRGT

Molecule	Kd
B2	~25 nM
B5	~25 nM

molecular target: T3, α5β1 integrin naturally expressed on wild-type K562 cells (UniProt P08648 42-1049; P05556 21-798); assay: flow cytometry, direct binding to wild-type K562 cells
T3 construct: whole, on cells
T3 sequence (P08648 42-1049, chain 1 of 2): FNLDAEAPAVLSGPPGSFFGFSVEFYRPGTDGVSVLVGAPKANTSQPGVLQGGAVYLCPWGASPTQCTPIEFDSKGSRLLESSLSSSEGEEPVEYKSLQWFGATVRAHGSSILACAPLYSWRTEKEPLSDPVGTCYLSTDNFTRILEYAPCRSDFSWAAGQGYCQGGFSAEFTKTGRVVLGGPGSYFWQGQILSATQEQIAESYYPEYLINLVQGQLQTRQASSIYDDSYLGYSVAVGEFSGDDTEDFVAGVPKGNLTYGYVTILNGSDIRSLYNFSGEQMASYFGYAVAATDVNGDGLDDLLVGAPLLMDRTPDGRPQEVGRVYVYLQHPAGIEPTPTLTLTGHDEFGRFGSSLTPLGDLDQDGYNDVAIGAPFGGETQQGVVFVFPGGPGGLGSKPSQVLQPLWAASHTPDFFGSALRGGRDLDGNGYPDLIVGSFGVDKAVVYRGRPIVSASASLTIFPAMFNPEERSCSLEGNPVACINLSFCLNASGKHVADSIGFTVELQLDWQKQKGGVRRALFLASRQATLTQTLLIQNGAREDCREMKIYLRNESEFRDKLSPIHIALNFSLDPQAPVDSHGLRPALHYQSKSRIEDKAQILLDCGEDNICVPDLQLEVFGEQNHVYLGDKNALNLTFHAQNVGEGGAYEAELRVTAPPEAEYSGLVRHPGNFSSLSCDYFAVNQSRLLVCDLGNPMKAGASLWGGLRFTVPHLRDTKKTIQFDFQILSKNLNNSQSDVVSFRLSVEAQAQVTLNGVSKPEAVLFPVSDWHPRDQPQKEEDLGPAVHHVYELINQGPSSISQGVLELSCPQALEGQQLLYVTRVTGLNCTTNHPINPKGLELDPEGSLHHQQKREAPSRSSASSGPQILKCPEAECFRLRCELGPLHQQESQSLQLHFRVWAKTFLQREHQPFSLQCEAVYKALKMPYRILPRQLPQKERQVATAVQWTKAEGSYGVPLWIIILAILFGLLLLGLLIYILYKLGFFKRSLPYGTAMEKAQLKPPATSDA
T3 sequence (P05556 21-798, chain 2 of 2): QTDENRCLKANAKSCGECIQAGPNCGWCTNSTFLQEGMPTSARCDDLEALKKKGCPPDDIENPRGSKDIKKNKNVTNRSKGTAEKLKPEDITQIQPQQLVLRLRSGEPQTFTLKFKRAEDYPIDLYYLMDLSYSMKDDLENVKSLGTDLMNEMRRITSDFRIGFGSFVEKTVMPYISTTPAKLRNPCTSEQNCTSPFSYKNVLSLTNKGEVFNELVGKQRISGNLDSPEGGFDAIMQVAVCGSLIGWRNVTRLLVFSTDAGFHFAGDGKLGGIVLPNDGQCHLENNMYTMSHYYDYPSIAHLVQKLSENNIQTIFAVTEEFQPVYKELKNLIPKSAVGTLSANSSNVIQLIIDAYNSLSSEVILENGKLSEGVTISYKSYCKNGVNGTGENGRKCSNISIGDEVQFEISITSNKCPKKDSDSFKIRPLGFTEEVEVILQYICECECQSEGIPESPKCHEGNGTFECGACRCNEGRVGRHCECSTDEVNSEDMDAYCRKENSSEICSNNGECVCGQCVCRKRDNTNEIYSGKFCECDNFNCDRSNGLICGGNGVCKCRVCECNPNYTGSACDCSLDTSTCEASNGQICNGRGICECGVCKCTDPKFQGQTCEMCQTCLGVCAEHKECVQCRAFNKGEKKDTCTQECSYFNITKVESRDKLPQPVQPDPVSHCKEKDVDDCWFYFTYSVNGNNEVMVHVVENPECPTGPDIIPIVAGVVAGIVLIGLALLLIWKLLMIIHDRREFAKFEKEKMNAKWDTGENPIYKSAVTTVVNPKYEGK

Molecule	binding result
B1	no binding (tested: 1 µM)
B2	no binding (tested: 1 µM)
B3	no binding (tested: 1 µM)
B4	no binding (tested: 1 µM)
B5	no binding (tested: 1 µM)

molecular target: T2, αvβ3 integrin expressed on K562-αvβ3 …; assay: flow cytometry, direct binding to K562-αvβ3 cells, anti-His detection

Molecule	binding result
B1	no binding (tested: 1 µM)
B3	no binding (tested: 1 µM)
B4	no binding (tested: 1 µM)

molecular target: T2, αvβ3 integrin expressed on K562-αvβ3 …; assay: flow cytometry, peptide titrated on K562-αvβ3 cells, anti-His detection

Molecule	Kd
B2	23 nM
B5	28 nM

molecular target: T4, αIIbβ3 integrin expressed on K562-αIIbβ3 cells (UniProt P08514 32-1039; P05106 27-788); assay: flow cytometry, peptide titrated on K562-αIIbβ3 cells, anti-His detection
T4 construct: whole, on cells; also called cell surface expressed αIIbβ3 integrin; GPIIb-IIIa

Molecule	Kd
B1	87 nM
B2	42 nM
B3	59 nM
B4	87 nM
B5	70 nM
